What was measured:
[1] = target: IL-12 receptor
[2] = target: IL-12 receptor; remark: listed apart in the source

INF-γ production by PHA blasts (ELISA, 36 hours) [1]: 186 ng/mL
proliferation of PHA blasts (MTT assay, 48 hours); lowest dose with an effect [2]: 10 pg/mL
Substance: recombinant IL-12 (from UniProt P29459) (ligand)
